A word on the IC50: it is the concentration that gives 50% inhibition.

Numbered stars: 1 amine (or outer) side, 2 acyl side, 3 side chain; on linkers, the order of the positions; unused ones are H or OH. Bridge positions count the residues as written; N and C are the ends. Side chains are listed from the residue outwards. Ends that are not written are not given here. * marks the point of attachment. C20 diacid = O=C(O)CCCCCCCCCCCCCCCCCCC(=O)*; γGlu = O=C(O)[C@H](CCC(=O)[*:2])N[*:1]; AEEA = NCCOCCOCC(=O)O

The text below walks through data of patent US20140087995A1 (published 2014).

The target of assay [1] is T1, rat calcitonin receptor (rat, UniProt P32214 25-516).
T1 construct: whole, on cells; Used as membranes prepared from BHK tk'ts 13 cells transiently transfected with the rat calcitonin receptor (Assay VIII); also called rCTR; rat calcitonin (a) receptor
T1 sequence (looked up): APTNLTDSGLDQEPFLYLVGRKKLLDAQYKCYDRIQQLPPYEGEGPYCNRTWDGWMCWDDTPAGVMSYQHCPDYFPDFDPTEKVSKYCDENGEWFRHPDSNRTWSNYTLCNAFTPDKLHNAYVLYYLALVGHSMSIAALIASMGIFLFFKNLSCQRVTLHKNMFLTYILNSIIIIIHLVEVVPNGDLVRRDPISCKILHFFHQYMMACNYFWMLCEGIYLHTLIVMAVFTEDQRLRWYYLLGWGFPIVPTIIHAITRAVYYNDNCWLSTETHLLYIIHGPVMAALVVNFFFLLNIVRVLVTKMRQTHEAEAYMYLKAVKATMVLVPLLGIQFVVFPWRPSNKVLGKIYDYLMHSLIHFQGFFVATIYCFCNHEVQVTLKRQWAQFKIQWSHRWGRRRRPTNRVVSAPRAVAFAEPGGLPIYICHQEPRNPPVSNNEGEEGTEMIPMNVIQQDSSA
As to the kind of experiment: SPA competition with 125I-calcitonin, membranes of BHK cells with rat CTR (Assay VIII).

Assay [2] addresses T2, human calcitonin receptor (human, UniProt P30988 25-474).
T2 construct: whole, on cells; Used as membranes prepared from a BHK tk'ts 13 cell line stably transfected with the human calcitonin receptor (Assay VII); also called hCTR; hCT
T2 sequence (looked up): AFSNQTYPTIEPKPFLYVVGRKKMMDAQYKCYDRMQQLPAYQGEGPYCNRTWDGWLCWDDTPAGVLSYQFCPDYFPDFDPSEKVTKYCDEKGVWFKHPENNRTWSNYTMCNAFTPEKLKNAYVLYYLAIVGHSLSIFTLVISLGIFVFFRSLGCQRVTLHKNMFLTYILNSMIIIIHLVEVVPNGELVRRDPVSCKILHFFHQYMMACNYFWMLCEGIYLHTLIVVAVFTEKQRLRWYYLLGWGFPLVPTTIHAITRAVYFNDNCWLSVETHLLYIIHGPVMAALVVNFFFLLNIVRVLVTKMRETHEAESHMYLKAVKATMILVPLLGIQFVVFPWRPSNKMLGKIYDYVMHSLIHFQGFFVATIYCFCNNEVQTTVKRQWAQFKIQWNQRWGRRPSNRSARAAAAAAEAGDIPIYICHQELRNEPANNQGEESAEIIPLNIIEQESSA
As to the kind of experiment: IC50 on human CTR divided by IC50 on human amylin receptor (Assays VII/V). How it is done: The resulting pellet was resuspended, homogenized and centrifuged (20.000 rpm, 15 min) in a buffer containing 20 mM Na-HEPES and 0.1 mM EDTA (pH 7.4, buffer 2). The resulting pellet was resuspended in buffer 2 and protein concentration was measured (BCA protein Assay, Pierce). The homogenate was kept cold during the whole procedure. The membranes were kept at −80° C. until use. The assay was performed in a 384 well Optiplate (PerkinElmer) in a total volume of 40 ul. Membranes were mixed with SPA beads. Final concentration of membranes 35 ng/μL final and SPA beads was 0.05 mg/well. Test-compounds were dissolved in DMSO and further diluted in assay buffer (50 mM Hepes, pH 7.4, 1 mM CaCl2, 5 mM MgCl₂, 0.1% OA and 0.02% Tween20). […] The final mixture was incubated with shaking at 400 rpm for 120 min at 25° C. prior to centrifugation (1500 rpm, 10 min). Samples were analyzed on TopCounter™ (Packard). The IC₅₀ was calculated using (one site binding competition analysis) GraphPad Prism5 as a measure of receptor affinity.
Membranes were prepared in the following way; the cells were rinsed with PBS and incubated with Versene for approximately 5 min before harvesting. The cells were flushed with PBS and the cell-suspension was centrifuged for 5 min at 1000 rpm. Cells were homogenized (Ultrathurrax) in a buffer containing 20 mM Na-HEPES and 10 mM EDTA (pH 7.4) and centrifuged at 20.000 rpm for 15 min. The resulting pellet was resuspended, homogenized and centrifuged (20.000 rpm, 15 min) in a buffer containing 20 mM Na-HEPES and 0.1 mM EDTA (pH 7.4, buffer 2). The resulting pellet was resuspended in buffer 2 and protein concentration was measured (BCA protein Assay, Pierce). The homogenate was kept cold during the whole procedure. The membranes were kept at −80° C. until use. Assay was performed in a 384 well Optiplate (PerkinElmer) in a total volume of 40 ul. Membranes were mixed with SPA beads.

Assay [3] has as its target T1, rat calcitonin receptor. As to the kind of experiment: IC50 on rat CTR divided by IC50 on rat amylin receptor (Assays VIII/VI).
Assay [4] concerns the target T3, rat amylin receptor (rat calcitonin receptor + rat RAMP 3) (rat, UniProt P32214 25-516; Q9JJ73 23-147).
T3 construct: whole, on cells; Used as membranes prepared from BHK tk'ts 13 cells transiently transfected with rat calcitonin receptor and rat RAMP 3 (Assay VI); also called rAmylin-R; rat amylin 3(a) receptor
T3 sequence (looked up) 1: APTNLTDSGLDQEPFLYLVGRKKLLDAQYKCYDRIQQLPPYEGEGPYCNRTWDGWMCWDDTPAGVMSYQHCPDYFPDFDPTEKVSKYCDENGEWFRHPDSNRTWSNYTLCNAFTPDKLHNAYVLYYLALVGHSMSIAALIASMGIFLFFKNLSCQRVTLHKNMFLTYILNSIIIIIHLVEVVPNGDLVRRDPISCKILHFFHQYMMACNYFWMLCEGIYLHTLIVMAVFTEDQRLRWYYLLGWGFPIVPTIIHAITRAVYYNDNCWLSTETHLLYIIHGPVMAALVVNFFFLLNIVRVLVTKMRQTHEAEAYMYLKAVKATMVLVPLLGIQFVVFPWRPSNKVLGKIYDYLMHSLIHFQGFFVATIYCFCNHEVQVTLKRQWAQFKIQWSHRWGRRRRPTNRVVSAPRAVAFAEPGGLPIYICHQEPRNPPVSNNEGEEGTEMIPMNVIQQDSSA
T3 sequence (looked up) 2: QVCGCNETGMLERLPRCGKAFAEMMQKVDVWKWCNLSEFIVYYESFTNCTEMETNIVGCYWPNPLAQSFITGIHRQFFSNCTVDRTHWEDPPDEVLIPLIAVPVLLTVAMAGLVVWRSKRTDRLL
As to the kind of experiment: SPA competition with 125I-rat amylin, membranes of BHK cells with rat CTR + rat RAMP3 (Assay VI). The protocol:
The binding assay was performed using scintillation proximity assay (SPA) beads (RPNQ0001) from PerkinElmer and cell membranes from the Amylin 3(a)/CRE-luc cells (as described in Assay (II)) were used. Membranes were prepared in the following way; the cells were rinsed with PBS and incubated with Versene for approximately 5 min before harvesting. The cells were flushed with PBS and the cell-suspension was centrifuged for 5 min at 1000 rpm. Cells were homogenized (ultrathurrax) in a buffer containing 20 mM Na-HEPES and 10 mM EDTA (pH 7.4) and centrifuged at 20.000 rpm for 15 min. The resulting pellet was resuspended, homogenized and centrifuged (20.000 rpm, 15 min) in a buffer containing 20 mM Na-HEPES and 0.1 mM EDTA (pH 7.4, buffer 2). The resulting pellet was resuspended in buffer 2 and protein concentration was measured (BCA protein Assay, Pierce). The homogenate was kept cold during the whole procedure. The membranes were kept at −80° C. until use. The assay was performed in a 384 well Optiplate (PerkinElmer) in a total volume of 40 ul. Membranes were mixed with SPA beads. Final concentration of membranes 35 ng/μL final and SPA beads was 0.05 mg/well. Test-compounds were dissolved in DMSO and further diluted in assay buffer (50 mM Hepes, pH 7.4, 1 mM CaCl2, 5 mM MgCl₂, 0.1% OA and 0.02% Tween20). […] The final mixture was incubated with shaking at 400 rpm for 120 min at 25° C. prior to centrifugation (1500 rpm, 10 min). Samples were analyzed on TopCounter™ (Packard). The IC₅₀ was calculated using (one site binding competition analysis) GraphPad Prism5 as a measure of receptor affinity.
Cells were grown in DMEM with 10% FBS and 1% Pen/Strep. Approximately 48 hours after transfection, the cells were harvested and membranes were prepared.

B1: N^ε1-[2-[2-[2-[[(4S)-4-carboxy-4-(19-carboxynonadecanoylamino)butanoyl]amino]ethoxy]ethoxy]acetyl]-[Arg14,Arg17,Pro21,Pro27,Pro31]-h-amylin (peptide)
peptide: K([AEEA-γGlu-C20 diacid])CNTATCATQRLARFLRHSSPNFGAIPSSTPVGSNTY-NH2
modifications: disulfide 2-7; N-terminus assumed
SMILES: CC[C@H](C)[C@H](NC(=O)[C@H](C)NC(=O)CNC(=O)[C@H](Cc1ccccc1)NC(=O)[C@H](CC(N)=O)NC(=O)[C@@H]1CCCN1C(=O)[C@H](CO)NC(=O)[C@H](CO)NC(=O)[C@H](Cc1c[nH]cn1)NC(=O)[C@H](CCCNC(=N)N)NC(=O)[C@H](CC(C)C)NC(=O)[C@H](Cc1ccccc1)NC(=O)[C@H](CCCNC(=N)N)NC(=O)[C@H](C)NC(=O)[C@H](CC(C)C)NC(=O)[C@H](CCCNC(=N)N)NC(=O)[C@H](CCC(N)=O)NC(=O)[C@@H](NC(=O)[C@H](C)NC(=O)[C@@H]1CSSC[C@H](NC(=O)[C@@H](N)CCCCNC(=O)COCCOCCNC(=O)CC[C@H](NC(=O)CCCCCCCCCCCCCCCCCCC(=O)O)C(=O)O)C(=O)N[C@@H](CC(N)=O)C(=O)N[C@@H]([C@@H](C)O)C(=O)N[C@@H](C)C(=O)N[C@@H]([C@@H](C)O)C(=O)N1)[C@@H](C)O)C(=O)N1CCC[C@H]1C(=O)N[C@@H](CO)C(=O)N[C@@H](CO)C(=O)N[C@H](C(=O)N1CCC[C@H]1C(=O)N[C@H](C(=O)NCC(=O)N[C@@H](CO)C(=O)N[C@@H](CC(N)=O)C(=O)N[C@H](C(=O)N[C@@H](Cc1ccc(O)cc1)C(N)=O)[C@@H](C)O)C(C)C)[C@@H](C)O
notes: Analogue of human amylin; also called compound 64
As for B1, the figures for the concentration for half-maximal inhibition (IC50) (with rat calcitonin receptor [1]; in assay [4]) were 128 nM and 1.97 nM, respectively. For the same molecule, the “Ratio hCT/hAmylin binding” value in assay [2] stood at 126. Further, in the assay with rat calcitonin receptor [3], the “Ratio rCT/rAmylin binding” value came to 64.7.

B2: N^ε1-[2-[2-[2-[[(4S)-4-carboxy-4-(19-carboxynonadecanoylamino)butanoyl]amino]ethoxy]ethoxy]acetyl]-[Arg14,Arg17,Pro21,Pro27]-h-amylin (peptide)
peptide: K([AEEA-γGlu-C20 diacid])CNTATCATQRLARFLRHSSPNFGAIPSSTNVGSNTY-NH2
modifications: disulfide 2-7; N-terminus assumed
SMILES: CC[C@H](C)[C@H](NC(=O)[C@H](C)NC(=O)CNC(=O)[C@H](Cc1ccccc1)NC(=O)[C@H](CC(N)=O)NC(=O)[C@@H]1CCCN1C(=O)[C@H](CO)NC(=O)[C@H](CO)NC(=O)[C@H](Cc1c[nH]cn1)NC(=O)[C@H](CCCNC(=N)N)NC(=O)[C@H](CC(C)C)NC(=O)[C@H](Cc1ccccc1)NC(=O)[C@H](CCCNC(=N)N)NC(=O)[C@H](C)NC(=O)[C@H](CC(C)C)NC(=O)[C@H](CCCNC(=N)N)NC(=O)[C@H](CCC(N)=O)NC(=O)[C@@H](NC(=O)[C@H](C)NC(=O)[C@@H]1CSSC[C@H](NC(=O)[C@@H](N)CCCCNC(=O)COCCOCCNC(=O)CC[C@H](NC(=O)CCCCCCCCCCCCCCCCCCC(=O)O)C(=O)O)C(=O)N[C@@H](CC(N)=O)C(=O)N[C@@H]([C@@H](C)O)C(=O)N[C@@H](C)C(=O)N[C@@H]([C@@H](C)O)C(=O)N1)[C@@H](C)O)C(=O)N1CCC[C@H]1C(=O)N[C@@H](CO)C(=O)N[C@@H](CO)C(=O)N[C@H](C(=O)N[C@@H](CC(N)=O)C(=O)N[C@H](C(=O)NCC(=O)N[C@@H](CO)C(=O)N[C@@H](CC(N)=O)C(=O)N[C@H](C(=O)N[C@@H](Cc1ccc(O)cc1)C(N)=O)[C@@H](C)O)C(C)C)[C@@H](C)O
notes: Analogue of human amylin; also called compound 82
Regarding B2, the IC50 came to 143 nM with rat calcitonin receptor [1] and 1.64 nM in assay [4]. Further, in assay [2], the “Ratio hCT/hAmylin binding” value stood at 140. For the same molecule, the “Ratio rCT/rAmylin binding” value with rat calcitonin receptor [3] is 87.

B3: N^ε1-[2-[2-[2-[[(4S)-4-carboxy-4-(19-carboxynonadecanoylamino)butanoyl]amino]ethoxy]ethoxy]acetyl]-[Arg17,Pro21,Pro27,Arg34]-h-amylin (peptide)
peptide: K([AEEA-γGlu-C20 diacid])CNTATCATQRLANFLRHSSPNFGAIPSSTNVGRNTY-NH2
modifications: disulfide 2-7; N-terminus assumed
SMILES: CC[C@H](C)[C@H](NC(=O)[C@H](C)NC(=O)CNC(=O)[C@H](Cc1ccccc1)NC(=O)[C@H](CC(N)=O)NC(=O)[C@@H]1CCCN1C(=O)[C@H](CO)NC(=O)[C@H](CO)NC(=O)[C@H](Cc1c[nH]cn1)NC(=O)[C@H](CCCNC(=N)N)NC(=O)[C@H](CC(C)C)NC(=O)[C@H](Cc1ccccc1)NC(=O)[C@H](CC(N)=O)NC(=O)[C@H](C)NC(=O)[C@H](CC(C)C)NC(=O)[C@H](CCCNC(=N)N)NC(=O)[C@H](CCC(N)=O)NC(=O)[C@@H](NC(=O)[C@H](C)NC(=O)[C@@H]1CSSC[C@H](NC(=O)[C@@H](N)CCCCNC(=O)COCCOCCNC(=O)CC[C@H](NC(=O)CCCCCCCCCCCCCCCCCCC(=O)O)C(=O)O)C(=O)N[C@@H](CC(N)=O)C(=O)N[C@@H]([C@@H](C)O)C(=O)N[C@@H](C)C(=O)N[C@@H]([C@@H](C)O)C(=O)N1)[C@@H](C)O)C(=O)N1CCC[C@H]1C(=O)N[C@@H](CO)C(=O)N[C@@H](CO)C(=O)N[C@H](C(=O)N[C@@H](CC(N)=O)C(=O)N[C@H](C(=O)NCC(=O)N[C@@H](CCCNC(=N)N)C(=O)N[C@@H](CC(N)=O)C(=O)N[C@H](C(=O)N[C@@H](Cc1ccc(O)cc1)C(N)=O)[C@@H](C)O)C(C)C)[C@@H](C)O
notes: Analogue of human amylin; also called compound 78
Turning to B3, the IC50 with rat calcitonin receptor [1] worked out at 90.6 nM; in assay [4], 1.3 nM. In assay [2], the “Ratio hCT/hAmylin binding” value was 60.7. Also, in the assay with rat calcitonin receptor [3], the “Ratio rCT/rAmylin binding” value stood at 69.9.
